Experimental data from publication PMC4063868.

Target: histones (chicken (endogenous in LMH))
Assay: high-salt co-extraction with histones from chromatin; LMH cells 48 h post-transfection; chromatin pelleted and incubated in 50 mM Tris-HCl pH 8.0, 2.5 M NaCl, 0,05% NP40 for 30 min at 4°C; supernatant (histones fraction) on 10% SDS-PAGE, colloidal coomassie blue and immunoblot with anti-VP22 L13a

“VP22 of Marek's disease virus tagged with eGFP at its C-terminus (natural protein)” was tested, and the fold less VP22 in the histone extract than from peGFP-UL49 cells was 4.5 fold.
